{"source": "paper PMC7203880", "target": "Slr0058 protein from Synechocystis sp. PCC 6803, His-tagged (Synechocystis sp. PCC 6803)", "assay": "SEC; Superose 6 Increase 10/300 GL on ÄKTAmicro; 100 mM KCl, 50 mM Tris-HCl pH 7.8, 5 mM MgCl2; 100 µl of Slr0058 at 0.313 mg/ml", "note": "Several values for one entry are separate records, joined by “and”; a condition that tells them apart may be missing. Equal values may be shown once."}
{"substance": "Slr0058 protein from Synechocystis sp. PCC 6803, His-tagged (natural protein)", "values": [{"measurement": "stoichiometry N", "value": "2 and 3"}]}
